{"source": "patent US20150203548A1", "about": "(GOVERNMENT OF THE UNITED STATES OF AMERICA AS REPRESENTED …, published 2015)", "target": "T1, Staphylococcal Enterotoxin B (SEB) (UniProt P01552 28-266)", "T1 sequence": "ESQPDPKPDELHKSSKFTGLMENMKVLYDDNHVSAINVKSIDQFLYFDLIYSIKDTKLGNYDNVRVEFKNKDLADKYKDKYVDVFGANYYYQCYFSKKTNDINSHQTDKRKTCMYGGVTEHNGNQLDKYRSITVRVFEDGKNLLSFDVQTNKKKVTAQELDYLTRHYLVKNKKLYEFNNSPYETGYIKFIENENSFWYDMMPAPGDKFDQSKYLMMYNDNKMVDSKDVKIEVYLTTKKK", "test": "SPR (ProteON XPR36), antigen-coated chip"}
{"binder": "sdAb A3 (VHH) VHH: EVQLVESGGGLVQAGDSLRLSCTASGRTFSRAVMGWFRQAPGKEREFVAAISAAPGTAYYAFYADSVRGRFSISADSAKNTVYLQMNSLKPEDTAVYYCAADLKMQVAAYMNQRSVDYWGQGTQVTVSS", "values": [{"measurement": "binding result", "value": "binds"}]}
